The assay addresses human CYP2D6 (human) (UniProt P10635).
Chain of UniProt P10635 (P10635 whole entry): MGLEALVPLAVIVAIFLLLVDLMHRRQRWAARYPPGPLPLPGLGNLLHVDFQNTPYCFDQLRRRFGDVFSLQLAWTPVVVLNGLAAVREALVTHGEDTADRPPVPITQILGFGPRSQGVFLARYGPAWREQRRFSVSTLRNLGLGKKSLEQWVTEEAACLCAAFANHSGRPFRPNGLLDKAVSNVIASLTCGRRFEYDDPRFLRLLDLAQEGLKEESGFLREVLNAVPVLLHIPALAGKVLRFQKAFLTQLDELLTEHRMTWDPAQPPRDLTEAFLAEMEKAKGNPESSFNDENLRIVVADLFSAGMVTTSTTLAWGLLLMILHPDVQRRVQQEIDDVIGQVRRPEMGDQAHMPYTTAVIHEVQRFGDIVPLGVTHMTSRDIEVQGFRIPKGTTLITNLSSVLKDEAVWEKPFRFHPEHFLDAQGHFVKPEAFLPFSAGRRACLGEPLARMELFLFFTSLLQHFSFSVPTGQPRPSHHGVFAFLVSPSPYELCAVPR

B1: human UGT1A7 (enzyme)
chain: GKLLVVPMDGSHWFTMQSVVEKLILRGHEVVVVMPEVSWQLGRSLNCTVKTYSTSYTLEDQDREFMVFADARWTAPLRSAFSLLTSSSNGIFDLFFSNCRSLFNDRKLVEYLKESCFDAVFLDPFDACGLIVAKYFSLPSVVFARGIFCHYLEEGAQCPAPLSYVPRLLLGFSDAMTFKERVWNHIMHLEEHLFCPYFFKNVLEIASEILQTPVTAYDLYSHTSIWLLRTDFVLEYPKPVMPNMIFIGGINCHQGKPVPMEFEAYINASGEHGIVVFSLGSMVSEIPEKKAMAIADALGKIPQTVLWRYTGTRPSNLANNTILVKWLPQNDLLGHPMTRAFITHAGSHGVYESICNGVPMVMMPLFGDQMDNAKRMETKGAGVTLNVLEMTSEDLENALKAVINDKSYKENIMRLSSLHKDRPVEPLDLAVFWVEFVMRHKGAPHLRPAAHDLTWYQYHSLDVIGFLLAVVLTVAFITFKCCAYGYRKCLGKKGRVKKAHKSKTH
Molecule B1 yielded a production of 4-hydroxypropranolol from propranolol by CYP2D6 in co-expressing enzyme bags (SAN306), against the CYP2D6 control strain SAN300 of 3.3 fold and a production of 5-hydroxypropranolol from propranolol by CYP2D6 in co-expressing enzyme bags (SAN306), against the CYP2D6 control strain SAN300 of 8.4 fold.

B2: human UGT1A9 (enzyme)
chain: GKLLVVPMDGSHWFTMRSVVEKLILRGHEVVVVMPEVSWQLGRSLNCTVKTYSTSYTLEDLDREFKAFAHAQWKAQVRSIYSLLMGSYNDIFDLFFSNCRSLFKDKKLVEYLKESSFDAVFLDPFDNCGLIVAKYFSLPSVVFARGILCHYLEEGAQCPAPLSYVPRILLGFSDAMTFKERVRNHIMHLEEHLLCHRFFKNALEIASEILQTPVTEYDLYSHTSIWLLRTDFVLDYPKPVMPNMIFIGGINCHQGKPLPMEFEAYINASGEHGIVVFSLGSMVSEIPEKKAMAIADALGKIPQTVLWRYTGTRPSNLANNTILVKWLPQNDLLGHPMTRAFITHAGSHGVYESICNGVPMVMMPLFGDQMDNAKRMETKGAGVTLNVLEMTSEDLENALKAVINDKSYKENIMRLSSLHKDRPVEPLDLAVFWVEFVMRHKGAPHLRPAAHDLTWYQYHSLDVIGFLLAVVLTVAFITFKCCAYGYRKCLGKKGRVKKAHKSKTH
For the molecule B2, the production of 4-hydroxypropranolol from propranolol by CYP2D6 in co-expressing enzyme bags (SAN308), against the CYP2D6 control strain SAN300 came to 2.8 fold and the production of 5-hydroxypropranolol from propranolol by CYP2D6 in co-expressing enzyme bags (SAN308), against the CYP2D6 control strain SAN300 came out at 5.8 fold.

B3: human UGT1A8 (enzyme)
chain: GKLLVVPMDGSHWFTMQSVVEKLILRGHEVVVVMPEVSWQLGKSLNCTVKTYSTSYTLEDLDREFMDFADAQWKAQVRSLFSLFLSSSNGFFNLFFSHCRSLFNDRKLVEYLKESSFDAVFLDPFDACGLIVAKYFSLPSVVFARGIACHYLEEGAQCPAPLSYVPRILLGFSDAMTFKERVRNHIMHLEEHLFCQYFSKNALEIASEILQTPVTAYDLYSHTSIWLLRTDFVLDYPKPVMPNMIFIGGINCHQGKPLPMEFEAYINASGEHGIVVFSLGSMVSEIPEKKAMAIADALGKIPQTVLWRYTGTRPSNLANNTILVKWLPQNDLLGHPMTRAFITHAGSHGVYESICNGVPMVMMPLFGDQMDNAKRMETKGAGVTLNVLEMTSEDLENALKAVINDKSYKENIMRLSSLHKDRPVEPLDLAVFWVEFVMRHKGAPHLRPAAHDLTWYQYHSLDVIGFLLAVVLTVAFITFKCCAYGYRKCLGKKGRVKKAHKSKTH
Regarding B3, the production of 4-hydroxypropranolol from propranolol by CYP2D6 in co-expressing enzyme bags (SAN307), against the CYP2D6 control strain SAN300 stood at 2.1 fold and the production of 5-hydroxypropranolol from propranolol by CYP2D6 in co-expressing enzyme bags (SAN307), against the CYP2D6 control strain SAN300 came out at 4.8 fold.

The values are drawn from publication PMC10527876.
